Measurements taken from FireProtDB (doi:10.1021/bi982931h).

Conditions: Geobacillus stearothermophilus, 25 °C, Urea, CD, Sodium phosphate 10 mM, reversible: yes, whole UniProt chain shown

B1: Large ribosomal subunit protein bL9 wild type, P02417 (protein)
chain: MKVIFLKDVKGKGKKGEIKNVADGYANNFLFKQGLAIEATPANLKALEAQKQKEQRQAAEELANAKKLKEQLEKLTVTIPAKAGEGGRLFGSITSKQIAESLQAQHGLKLDKRKIELADAIRALGYTNVPVKLHPEVTATLKVHVTEQK
B1 gave an unfolding free energy (pH 2.4, NaCl 750 mM) of 2.9 kcal/mol, an unfolding free energy (pH 2.79, NaCl 100 mM) of 2.3 kcal/mol and an unfolding free energy (pH 3.15, NaCl 750 mM) of 3.1 kcal/mol. It also gave an unfolding free energy (pH 3.55, NaCl 100 mM) of 3 kcal/mol, an unfolding free energy (pH 4.14, NaCl 750 mM) of 4 kcal/mol and an unfolding free energy (pH 4.51, NaCl 100 mM) of 3.5 kcal/mol. The unfolding free energy (pH 5.25, NaCl 750 mM) was 4.8 kcal/mol, the unfolding free energy (pH 5.99, NaCl 100 mM) was 4.4 kcal/mol and the unfolding free energy (pH 6.56, NaCl 750 mM) was 4.7 kcal/mol. For the same protein, the unfolding free energy (pH 6.98, NaCl 100 mM) was 4.5 kcal/mol and the unfolding free energy (pH 7.26, NaCl 750 mM) was 5.2 kcal/mol.
